Laboratory results from publication PMC3416812.

Columns and labels:
[1] = target: tubulin polymers from porcine brain tubulin fixed with glutaraldehyde (MTs (GA) or zinc-sheets (GA)) (porcine (purified from porcine brain)) (UniProt P02550)
[2] = target: tubulin polymers from porcine brain tubulin fixed with glutaraldehyde (MTs (GA) or zinc-sheets (GA)) (porcine (purified from porcine brain)) (UniProt P02550); remark: listed apart in the source
[3] = target: tubulin purified from porcine brain, polymerised without fixation (MTs, zinc-sheets or zinc-macrotubes) (porcine (purified from porcine brain)) (UniProt P02550)

observed walking length on zinc-sheets (GA) (TIRF) [1] [nm]	velocity of single-molecule movement on MTs (GA) (TIRF, from MSD plots; pH 6.8, 25 mM potassium acetate, 1 mM ATP) [2] [nm/s]	velocity of single-molecule movement on zinc-sheets (GA) (TIRF, from MSD plots; pH 6.8, 25 mM potassium acetate, 1 mM ATP) [2] [nm/s]	velocity of single-molecule movement on MTs (TIRF, from MSD plots; pH 6.8, 25 mM potassium acetate, 1 mM ATP) [3] [nm/s]	Substance
500	–	–	–	rat kinesin dimer (RK430) fused with GFP (domain or fragment)
500	35	35	36	recombinant yeast dynein dimer GFP-GST-Dyn1_(331kDa) (domain or fragment)
